Sequences and labels used below:
B1: h1A11.1-G7-S2-SS-Anti-VEGF DVD-Ig (bispecific antibody, part only; not given: anti-VEGF domains, h1A11.1 VL, constant regions, part only)
heavy, part: EVQLVESGGGLVQPGGSLRLSCAASGFTFNHFPMAWVRQAPGKGLEWVATISSSDWTPYYRDSVKGRFTISRDNAKNSLYLQMNSLRAEDTAVYYCARGYYNSPFAYWGQGTLVTVSSASTKGP
light, part: TVAAP
B2: h1A11.1-B9-S2-SS-Anti-VEGF DVD-Ig (bispecific antibody, part only; not given: anti-VEGF domains, h1A11.1 VL, constant regions, part only)
heavy, part: B1 heavy, part with N30S, T50S, W56S, P58T, Y59N
light, part: TVAAP
B3: h1A11.1-F7-S2-SS-Anti-VEGF DVD-Ig (bispecific antibody, part only; not given: anti-VEGF domains, h1A11.1 VL, constant regions, part only)
heavy, part: B1 heavy, part with N30R, A35T, T50S, W56G, P58I, Y59N
light, part: TVAAP
B4: h1A11.1-H3-S2-SS-Anti-VEGF DVD-Ig (bispecific antibody, part only; not given: anti-VEGF domains, h1A11.1 VL, constant regions, part only)
heavy, part: B1 heavy, part with N30R, H31N, T50S, W56G, P58T, Y59N, N77S
light, part: TVAAP
B5: h1A11.1-A10-S3-SS-Anti-VEGF DVD-Ig (bispecific antibody, part only; not given: anti-VEGF domains, h1A11.1 VL, constant regions, part only)
heavy, part: B1 heavy, part with N30R, T50S, W56G, P58S, Y59N, N77S
light, part: TVAAP
B6: h1A11.1-A04-S3-SS-Anti-VEGF DVD-Ig (bispecific antibody, part only; not given: anti-VEGF domains, h1A11.1 VL, constant regions, part only)
heavy, part: B1 heavy, part with N30R, W56G, T57A, P58T, N77S
light, part: TVAAP

Positions count from the first letter of the chain named.

Consider 6 molecules from patent US9915665.

The target of one experiment is human DLL4 (human) (UniProt Q9NR61). Description: Biacore (SPR), DVD-Ig and huDLL4.
UniProt Q9NR61, sequence (Q9NR61 27-524 limits assumed): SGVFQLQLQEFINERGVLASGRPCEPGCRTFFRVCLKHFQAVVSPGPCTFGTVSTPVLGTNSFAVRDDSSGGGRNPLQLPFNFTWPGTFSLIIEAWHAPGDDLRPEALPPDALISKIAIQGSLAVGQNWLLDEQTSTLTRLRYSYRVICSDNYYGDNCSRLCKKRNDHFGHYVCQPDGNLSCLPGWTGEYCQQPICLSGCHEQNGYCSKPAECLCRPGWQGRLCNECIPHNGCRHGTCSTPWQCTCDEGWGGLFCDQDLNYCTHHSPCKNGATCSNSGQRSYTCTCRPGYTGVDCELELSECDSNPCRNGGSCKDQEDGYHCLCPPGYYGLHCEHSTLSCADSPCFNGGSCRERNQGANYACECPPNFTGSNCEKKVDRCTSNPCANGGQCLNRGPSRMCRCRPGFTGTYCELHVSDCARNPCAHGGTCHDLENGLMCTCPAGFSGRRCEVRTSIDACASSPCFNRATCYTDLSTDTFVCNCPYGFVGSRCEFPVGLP
B1 showed a Kd of 1.32 nM, a koff of 0.000155 s⁻¹ and an association rate constant (kon) of 117000 M⁻¹ s⁻¹.

As for B2, the Kd was determined as 0.923 nM, the koff turned out to be 0.000106 s⁻¹ and the kon amounted to 115000 M⁻¹ s⁻¹.

Molecule B3 displayed a Kd of 0.556 nM, a koff of 0.000319 s⁻¹ and a kon of 570000 M⁻¹ s⁻¹.

B4 displayed a Kd of 1.04 nM, a koff of 0.000136 s⁻¹ and a kon of 130000 M⁻¹ s⁻¹.

The target of the next experiment is murine DLL4 (murine) (UniProt Q9JI71). Description: Biacore (SPR), muDLL4; reference is the parental DVD.
UniProt Q9JI71, sequence (Q9JI71 27-525 limits assumed): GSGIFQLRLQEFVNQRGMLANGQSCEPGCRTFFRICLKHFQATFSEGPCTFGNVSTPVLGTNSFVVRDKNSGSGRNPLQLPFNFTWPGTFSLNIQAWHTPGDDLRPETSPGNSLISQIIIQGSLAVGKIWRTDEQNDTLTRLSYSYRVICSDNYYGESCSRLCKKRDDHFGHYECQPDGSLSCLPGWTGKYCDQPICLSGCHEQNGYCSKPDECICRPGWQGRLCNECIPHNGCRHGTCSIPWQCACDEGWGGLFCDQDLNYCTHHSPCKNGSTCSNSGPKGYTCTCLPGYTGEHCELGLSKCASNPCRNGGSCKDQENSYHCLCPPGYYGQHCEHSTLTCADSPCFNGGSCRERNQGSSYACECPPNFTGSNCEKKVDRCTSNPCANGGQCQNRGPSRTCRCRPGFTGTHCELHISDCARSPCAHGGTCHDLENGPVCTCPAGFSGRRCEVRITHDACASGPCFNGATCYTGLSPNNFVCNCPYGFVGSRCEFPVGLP
B5: the KD ratio (parental DVD/AM DVD) was determined as 53.8 fold.

For B6, the KD ratio (parental DVD/AM DVD) stood at 92.2 fold.

As for B1, the KD ratio (parental DVD/AM DVD) was determined as 13.6 fold.

For the molecule B2, the KD ratio (parental DVD/AM DVD) was 17.4 fold.

With B3, the KD ratio (parental DVD/AM DVD) turned out to be 59.2 fold.

B4: the KD ratio (parental DVD/AM DVD) is 14.3 fold.

The target is the same in a further experiment. Description: Biacore (SPR), DVD-Ig and muDLL4.
The molecule B5 showed a Kd of 0.774 nM, a koff of 0.000133 s⁻¹ and a kon of 171000 M⁻¹ s⁻¹.

In turn, B6 came in with a Kd of 0.451 nM, a koff of 8.12e-05 s⁻¹ and an on-rate constant (kon) of 180000 M⁻¹ s⁻¹.

B1 displayed a Kd of 1.57 nM, a koff of 0.000266 s⁻¹ and a kon of 169000 M⁻¹ s⁻¹.

For B2, the Kd worked out at 1.23 nM, the off-rate constant (koff) was 0.000205 s⁻¹ and the kon turned out to be 167000 M⁻¹ s⁻¹.

For B3, the Kd is 0.361 nM, the koff worked out at 0.000483 s⁻¹ and the kon turned out to be 1.34e+06 M⁻¹ s⁻¹.

B4 registered a Kd of 1.49 nM, a koff of 0.000294 s⁻¹ and a kon of 197000 M⁻¹ s⁻¹.

The next experiment has as its target human DLL4 (human) (UniProt Q9NR61). Description: Biacore (SPR), huDLL4; reference is the parental DVD.
For the molecule B1, the KD ratio (parental DVD/AM DVD) came out at 15.2 fold.

In the case of B2, the KD ratio (parental DVD/AM DVD) was 21.6 fold.

On to B3, for which the KD ratio (parental DVD/AM DVD) came out at 35.9 fold.

For B4, the KD ratio (parental DVD/AM DVD) was determined as 19.1 fold.
